Where two headings read alike, the source gives them in different places.

Consider one substance from patent US20050013867A1, “Use of proton sequestering agents in drug formulations” (priority 2001, published 2005).

Data set [1] is described as follows: Degradation rate of parathyroid hormone in solution ± disodium citrate, by high pressure liquid chromatography. It counts as physicochemical. The note with it: 1 mg/mL parathyroid hormone ± disodium citrate, pH 3, 40° C. On the procedure:
Determine the degradation rates of parathyroid hormone (1 mg/mL; 0.24 mM)±disodium citrate at pH 3 at 40° C. In separate aliquots, incubate with the following amounts of disodium citrate ([…]; 57.3 μg/mL, 0.24 mM; and 5.73 μg/mL, 0.024 mM). Include a control aliquot containing parathyroid hormone lacking disodium citrate. High pressure liquid chromatography is used to measure the degradation of parathyroid hormone at various time points.

The conditions of data set [2]: aqueous solution, general indicator of proton affinity, cited from earlier work.

For the substance parathyroid hormone, the “retention of activity (degradation by HPLC)” value in data set [1] was “retains more activity in the citrate solution”. For the same substance, the “pKa of C-terminal carboxylate” value in data set [2] was “≈ 3.5”; in data set [2] (listed as PTH) it was 3.5. Moreover, the “pKa of carboxylate sidechains of aspartic and glutamic acid” value in data set [2] was “≈ 4.8”; in data set [2] (listed as PTH), 4.8.
